Assay: western blot, TGF-β-treated MCF-10A
Details: glycan lost, control: control sgRNA cells

Row | Substance | expression_or_secretion
1 | PD-L1: STT3B knockdown | no change
2 | PD-L1: STT3A knockdown | no change
3 | PD-L1: STT3A/3B knockdown | decreases

— publication PMC5954021
